Values of other authors, collected in PMC4651712.

Target: PTHR1 (Homo sapiens) (UniProt Q03431)
Sequence of UniProt Q03431 (Q03431 27-593): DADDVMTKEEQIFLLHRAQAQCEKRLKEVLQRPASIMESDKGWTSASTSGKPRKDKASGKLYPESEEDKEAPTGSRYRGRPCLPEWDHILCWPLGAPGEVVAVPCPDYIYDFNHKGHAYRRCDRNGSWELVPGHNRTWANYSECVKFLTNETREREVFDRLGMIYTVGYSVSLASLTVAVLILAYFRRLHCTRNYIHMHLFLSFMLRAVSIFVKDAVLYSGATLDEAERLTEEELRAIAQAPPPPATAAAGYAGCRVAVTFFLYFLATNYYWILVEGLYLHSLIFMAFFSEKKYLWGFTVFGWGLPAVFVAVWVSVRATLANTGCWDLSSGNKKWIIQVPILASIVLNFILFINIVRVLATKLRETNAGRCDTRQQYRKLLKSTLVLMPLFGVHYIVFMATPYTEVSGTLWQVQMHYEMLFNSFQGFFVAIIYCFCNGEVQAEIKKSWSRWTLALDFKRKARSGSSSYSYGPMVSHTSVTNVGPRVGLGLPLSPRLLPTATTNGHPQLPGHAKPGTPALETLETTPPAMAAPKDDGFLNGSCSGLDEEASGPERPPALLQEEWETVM

- Kd: 1 nM
Substance: PTH (from UniProt P01270)
